Measured values reported in patent publication US20230192897A1 (NUMAB THERAPEUTICS, published 2023).
Where “and” joins values, the source holds several entries; their conditions need not be identical. Equal values may be shown once. Read-outs that look alike come from different tables or passages of the source.

Assays:
[1] = target: T1, CD137 on Jurkat NFkB reporter cells (human, UniProt Q07011 24-255); test: cell-based or functional assay
[2] = target: T1, CD137 on Jurkat NFkB reporter cells; test: cell-based or functional assay; remark: listed apart in the source
[3] = target: human PDL1 on cells (human, UniProt Q9NZQ7 19-290); test: cell-based or functional assay
[4] = target: human PDL1 extracellular domain (human, UniProt Q9NZQ7 19-238); test: SPR, IgG format captured
Protocol: (§1) Affinity to PDL1 of the different species was determined by SPR measurements using a Biacore T200 device (GE Healthcare). An antibody specific for the Fc region of human IgGs was immobilized on a sensor chip (CM5 sensor chip, GE Healthcare) by amine-coupling. For all formats, with the exception of the Fc containing Morrison formats, PDL1-Fc chimeric protein from different species were captured by the immobilized antibody.
(§2) The Fc containing formats were directly captured by the antibody specific for the Fc region of human IgGs. Two-fold serial dilutions of PDL1 extracellular domain or CD137 extracellular domain ranging from 90 to 0.35 nM were tested for binding to the IgG captured on the biosensor chip. After each injection cycle, surfaces were regenerated with one injection of a 3 M MgCl2 solution.

[5] = target: T2, human CD137 extracellular domain (human, UniProt Q07011 24-186); test: SPR, IgG format captured
T2 construct: also called CD137 (PeproTech, cat. 310-15)
Protocol: as §1, §2

[6] = target: T3, biotinylated human PDL1 (human, UniProt Q9NZQ7 19-238, limits assumed, biotinylated); test: competition ELISA B7.1/PDL1
T3 construct: also called biotinylated PDL1
Summary of the method: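 IC₅₀ was derived by four-parameter logistic fitting of reference-subtracted A450/690 readings. The signal came from streptavidin-polyHRP40 (10 ng/ml) with a 6-minute TMB reaction detecting biotinylated PDL1 bound to the plate. Pre-mixed samples sat 1 h at RT before a 1.5 h plate incubation.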

[7] = target: T3, biotinylated human PDL1; test: competition ELISA PD-1/PDL1

Molecule: urelumab (antibody)
- EC50, NFkB reporter, CHO-PDL1 [1]: 0.0795 µg/mL and 0.104 µg/mL and 0.0865 µg/mL
- Top of curve fit, NFkB reporter, CHO-PDL1 [1]: 100
- EC50, NFkB reporter, CHO-PDL1 [2]: 0.0791 µg/mL
- EC50, NFkB reporter, CHO-PDL1, 6 h [2]: 0.0565 µg/mL
- EC50, NFkB reporter, CHO-PDL1, 6 h, +HSA [2]: 0.0777 µg/mL
- EC50, NFkB reporter, CHO-PDL1, 24 h [2]: 0.0466 µg/mL
- EC50, NFkB reporter, CHO-PDL1, 24 h, +HSA [2]: 0.0782 µg/mL
- EC50, NFkB reporter, HCC827 with IFNg [2]: 0.114 µg/mL and 0.145 µg/mL and 0.108 µg/mL
- EC50, NFkB reporter, HCC827 with IFNg, 24 h [2]: 0.0528 µg/mL
- EC50, NFkB reporter, HCC827 without IFNg [2]: 0.212 µg/mL and 0.11 µg/mL and 0.112 µg/mL
- EC50, NFkB reporter, HCC827 without IFNg, 24 h [2]: 0.0475 µg/mL
- Top of curve fit, NFkB reporter, CHO-PDL1 [2]: 102
- Top of curve fit, NFkB reporter, HCC827 with IFNg [2]: 100
- Top of curve fit, NFkB reporter, HCC827 without IFNg [2]: 100

B1: PRO1062 (bispecific antibody, human IgG1, kappa, L234A L235A)
light: DIQMTQSPSSLSASVGDRVTITCQASQSINDYLAWYQQKPGKAPKLLIYKASTLASGVPSRFSGSGSGTDFTLTISSLQPEDFATYYCQQGYIITDIDNVFGTGTKVTVLGTVAAPSVFIFPPSDEQLKSGTASVVCLLNNFYPREAKVQWKVDNALQSGNSQESVTEQDSKDSTYSLSSTLTLSKADYEKHKVYACEVTHQGLSSPVTKSFNRGEC
heavy: QVQLQESGPGLVKPSETLSLTCKVSGFSFSSGYDMCWIRQPPGKGLEWIGCVVAGSVDITYYASWAKGRVTISVDSSKNQFSLKLSSVTAADTAVYYCARKDAYSDAFNLWGQGTLVTVSSASTKGPSVFPLAPSSKSTSGGTAALGCLVKDYFPEPVTVSWNSGALTSGVHTFPAVLQSSGLYSLSSVVTVPSSSLGTQTYICNVNHKPSNTKVDKRVEPKSCDKTHTCPPCPAPEAAGGPSVFLFPPKPKDTLMISRTPEVTCVVVDVSHEDPEVKFNWYVDGVEVHNAKTKPREEQYNSTYRVVSVLTVLHQDWLNGKEYKCKVSNKALGAPIEKTISKAKGQPREPQVYTLPPSREEMTKNQVSLTCLVKGFYPSDIAVEWESNGQPENNYKTTPPVLDSDGSFFLYSKLTVDKSRWQQGNVFSCSVMHEALHNHYTQKSLSLSPGKGGGGSGGGGSIQMTQSPSSLSASVGDRVTITCQASQSINNVLAWYQQKPGKAPKLLIYRASTLASGVPSRFSGSGSGTDFTLTISSLQPEDFATYYCQSSYGNYGDFGTGTKVTVLGGGGGSGGGGSGGGGSGGGGSQVQLQESGPGLVKPSETLSLTCKVSGFSFSNSYWICWIRQPPGKGLEWIGCTFVGSSDSTYYANWAKGRVTISVDSSKNQFSLKLSSVTAADTAVYYCARHPSDAVYGYANNLWGQGTLVTVSS
notes: also called 33-03-G02 sc01 IgG1 HC with 38-27-C05 sc01 scFv; Morrison-H
- IC50 (ng/ml), NF-AT potency assay [3]: 96.5 ng/mL
- rel. IC50 (avelumab/test) [3]: 0.68 fold
- EC50, NFkB reporter, CHO-PDL1, 6 h [2]: 0.0522 µg/mL
- EC50, NFkB reporter, CHO-PDL1, 24 h [2]: 0.0869 µg/mL
- IC50 (ng/ml), NFkB reporter, CHO-PD-L1, 24 h [2]: 86.9 ng/mL
- max. activation (%), NFkB reporter, CHO-PD-L1, 24 h [2]: 134%
- rel. IC50 (urelumab/test), NFkB reporter, CHO-PD-L1, 24 h [2]: 0.54 fold
- koff [4]: 5e-05 s⁻¹
- Kd [5]: 1.3 nM
- koff [5]: 0.00037 s⁻¹
- kon [5]: 280000 M⁻¹ s⁻¹
- IC50 [6]: 0.0195 µg/mL
- rel. IC50 (IC50 avelumab/IC50 test) [6]: 0.51 fold
- IC50 [7]: 0.0113 µg/mL
- rel. IC50 (IC50 avelumab/IC50 test) [7]: 0.32 fold
